Measurements reported in paper doi:10.1101/2020.07.21.215244 (bioRxiv, 2020).

T1: AscA (YecA), unfused full-length (E. coli, UniProt P0AD05 1-221)
T1 sequence (looked up): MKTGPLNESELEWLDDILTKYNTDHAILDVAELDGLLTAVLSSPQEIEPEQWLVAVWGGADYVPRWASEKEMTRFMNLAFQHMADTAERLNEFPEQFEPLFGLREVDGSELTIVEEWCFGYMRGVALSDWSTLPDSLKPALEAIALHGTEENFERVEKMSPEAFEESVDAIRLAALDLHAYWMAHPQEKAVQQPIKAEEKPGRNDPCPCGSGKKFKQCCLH


What was measured:
[1] = molecular target: vacant (non-translating) 70S ribosomes; test: co-sedimentation
[2] = molecular target: T1, AscA (YecA), unfused full-length; test: MST

Row | Binder | stoichiometry N [1] | Kd [2]
1 | AscA (YecA), unfused full-length (natural protein) MKTGPLNESELEWLDDILTKYNTDHAILDVAELDGLLTAVLSSPQEIEPEQWLVAVWGGADYVPRWASEKEMTRFMNLAFQHMADTAERLNEFPEQFEPLFGLREVDGSELTIVEEWCFGYMRGVALSDWSTLPDSLKPALEAIALHGTEENFERVEKMSPEAFEESVDAIRLAALDLHAYWMAHPQEKAVQQPIKAEEKPGRNDPCPCGSGKKFKQCCLH | 1 | 
2 | SecB, fluorescently labelled (NT-647) (natural protein, E. coli, UniProt P0AG86 1-155, looked up, randomly labelled with NT-647 (NT-647-NHS labelling kit)) MSEQNNTEMTFQIQRIYTKDISFEAPNAPHVFQKDWQPEVKLDLDTASSQLADDVYEVVLRVTVTASLGEETAFLCEVQQGGIFSIAGIEGTQMAHCLGAYCPNILFPYARECITSMVSRGTFPQLNLAPVNFDALFMNYLQQQAGEGTEEHQDA |  | ~150 nM
